Assays:
[1] = target: HK97 small terminase (bacteriophage HK97); test: cryo-EM structure; small terminase with 31 bp dsDNA (cos 7-37), 1:2 protein to DNA, 25 mM Tris-HCl pH 7.5, 200 mM NaCl, 10 mM MgCl2; complex purified on S200 10/30; nonamer
[2] = target: HK97 small terminase Arg5Ala mutant (bacteriophage HK97); test: SEC; size exclusion chromatography of the purified mutant proteins (Supplementary Fig. 12); nonamer
[3] = target: HK97 small terminase Arg7Ala mutant (bacteriophage HK97); test: as above
[4] = target: HK97 small terminase Arg107Ala mutant (bacteriophage HK97); test: as above
[5] = target: HK97 small terminase Arg114Ala mutant (bacteriophage HK97); test: as above
[6] = target: HK97 small terminase Lys4Ala mutant (bacteriophage HK97); test: as above
[7] = target: HK97 small terminase Lys4Ala/Arg5Ala/Arg7Ala triple mutant (bacteriophage HK97); test: as above
[8] = target: HK97 small terminase Lys100Ala mutant (bacteriophage HK97); test: as above
[9] = target: T1, HK97 small terminase WT (bacteriophage HK97) (UniProt Q9MBW4); test: MST; settings: 25 mM Tris-HCl pH 7.5, 200 mM NaCl, 10 mM MgCl2; EMSA: 3 h at RT, gel at 4 C, 1 uM protein with 2 uM unlabelled or 30 nM labelled DNA; MST: +0.005-0.01% Tween …
T1 sequence: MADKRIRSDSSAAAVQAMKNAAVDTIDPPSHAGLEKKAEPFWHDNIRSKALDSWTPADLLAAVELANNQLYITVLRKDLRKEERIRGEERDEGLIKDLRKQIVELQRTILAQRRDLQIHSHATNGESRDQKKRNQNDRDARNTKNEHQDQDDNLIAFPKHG

[10] = tested on: HK97 small terminase K4A/R5A/R7A (bacteriophage HK97); test: MST; settings: 25 mM Tris-HCl pH 7.5, 200 mM NaCl, 10 mM MgCl2; EMSA: 3 h at RT, gel at 4 C, 1 uM protein with 2 uM unlabelled or 30 nM labelled DNA; MST: +0.005-0.01% Tween …
[11] = tested on: HK97 small terminase R107A (bacteriophage HK97); test: MST; settings: 25 mM Tris-HCl pH 7.5, 200 mM NaCl, 10 mM MgCl2; EMSA: 3 h at RT, gel at 4 C, 1 uM protein with 2 uM unlabelled or 30 nM labelled DNA; MST: +0.005-0.01% Tween …

## HK97 small terminase (natural protein)
[1]
  stoichiometry N: 9

## HK97 small terminase Arg5Ala mutant (natural protein)
[2]
  stoichiometry N: 9

## HK97 small terminase Arg7Ala mutant (natural protein)
[3]
  stoichiometry N: 9

## HK97 small terminase Arg107Ala mutant (natural protein)
[4]
  stoichiometry N: 9

## HK97 small terminase Arg114Ala mutant (natural protein)
[5]
  stoichiometry N: 9

## HK97 small terminase Lys4Ala mutant (natural protein)
[6]
  stoichiometry N: 9

## HK97 small terminase Lys4Ala/Arg5Ala/Arg7Ala triple mutant (natural protein)
[7]
  stoichiometry N: 9

## HK97 small terminase Lys100Ala mutant (natural protein)
[8]
  stoichiometry N: 9

## cos71 (cos 31-100), lacks binding site
[9]
  Kd: 2040 nM

## cos100 (cos -20 to 80)
[10]
  Kd: 850 nM
[11]
  Kd: 790 nM
[9]
  Kd: 500 nM

From doi:10.1101/2023.07.17.549218
